T1: RAD51 (wild-type human RAD51 DNA strand exchange protein) (human, UniProt Q06609 1-339)
T1 sequence: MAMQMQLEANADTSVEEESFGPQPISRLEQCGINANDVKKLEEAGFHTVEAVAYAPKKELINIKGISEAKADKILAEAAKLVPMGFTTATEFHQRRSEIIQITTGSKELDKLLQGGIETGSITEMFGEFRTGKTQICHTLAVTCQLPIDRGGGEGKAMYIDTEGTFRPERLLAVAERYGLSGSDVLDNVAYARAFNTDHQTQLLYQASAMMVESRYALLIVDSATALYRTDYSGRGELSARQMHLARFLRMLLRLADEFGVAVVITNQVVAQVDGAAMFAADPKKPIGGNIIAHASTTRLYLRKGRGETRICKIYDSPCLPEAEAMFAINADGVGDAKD


What was measured:
[1] = target: RAD51 wild type (human, UniProt Q06609 1-339); assay: FRET
[2] = target: RAD51 E237A (human, UniProt Q06609 1-339, E237A); assay: FRET
[3] = target: RAD51 E59A (human, UniProt Q06609 1-339, E59A); assay: FRET
[4] = target: RAD51 E42A (human, UniProt Q06609 1-339, E42A); assay: FRET
[5] = target: T1, RAD51 (wild-type human RAD51 DNA strand …); assay: fluorescence polarisation

Kd [5] [nM]	Binder	binding result [1]	binding result [2]	binding result [3]	binding result [4]
–	dT60 (poly(dT)-60) (ssDNA) DNA: TTTTTTTTTTTTTTTTTTTTTTTTTTTTTTTTTTTTTTTTTTTTTTTTTTTTTTTTTTTT	binds	binds	binds	binds
34 ± 5	KEPTLLGFHTASGKKVKIAKESLDKVKNLFDEKEQ (FITC (fluorescein) on the N-terminus, as printed: FITC-KEPT...) [FITC-BRC4 peptide (BRC4 repeat of BRCA2)]	–	–	–	–

Reference: PMC3799448 (Nucleic Acids Research, 2013)
